T1: recombinant ligand binding domain of mouse SIRPα (mSIRPα) (mouse)
T1 chain: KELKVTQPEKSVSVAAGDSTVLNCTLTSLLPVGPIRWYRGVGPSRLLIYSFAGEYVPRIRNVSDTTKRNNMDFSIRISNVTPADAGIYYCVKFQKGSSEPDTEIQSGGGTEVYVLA

B1: bivalent anti-SIRPα Nb15 (pHEN25 construct, dimerised through a cysteine) (VHH)
VHH: EVQLQESGGGSVQAGGSLRLSCATSGLTYSAYCMGWFRQAPGKGRETVAQINLGDGDTYYADSVKGRFAISQDNAKNTVHLLMNGLKPEDTAIYYCAGSDHMCAKWHYWGQGTQVTVSS
modifications: 99mTc tricarbonyl at the His6-tag (in the radioligand binding assay only)
B2: Nb 1 (VHH)
VHH: QVQLQESGGGSVQAGGSLRLSCSASGHMYGSVIGWFRQAPGKEREGVAAIYTYDGSEYYADSVKGRFTVSQDTQDNAKNTVYLQMSSLNVEDTAMYYCAVGFPLGRLTTVRVLASNEYKYGTQVTVSS
B3: Nb 52 (VHH)
VHH: QVQLQESGGGSVQAGGSLRLSCAASGFTYSNYCMAWLRQAPGKERESVAQININDGDTYYAASVKGRFTISQDNAKNTVYLMMNSLKPEDTAIYYCAATGYGCQGYNAWGQGTQVTVSS
B4: Nb 12 (VHH)
VHH: QVQLQESGGGSVQAGGSVKLSCATSGLTYSAYCMGWFRQAPGKGRETVAQINLGDGDTYYADSVKGRFTISLDNARNTVYLQMNSLKPEDTAIYYCAATYSSRCASFGYWGQGTQVTVSS
B5: Nb 26 (VHH)
VHH: QVQLQESGGGSVQAGGSLRLSCATSGLTYTAYCMGWFRQAPGKGRETVAQINLGDGDTYYADSVKGRFAISQDNAKNTVYLLMNSLQPEDTAIYYCATTDGRCQKWQYWGQGTQVTVSS
B6: Nb 53 (VHH)
VHH: QVQLQESGGGSVQAGGSLRLSCAASGYTYSDYCMGWFRQAPGKEREVVAEINIVDGDTYYADSVKGRFTISQDNAKNTVYLRMNSLKPDDTAIYVCAATGRRCQGYNSWGQGTQVTVSS
B7: Nb 42 (VHH)
VHH: QVQLQESGGGSVQAGGSLRLSCAASGFTYSNYCMAWFRQAPGKERESVAQINNNDGDTYYAASVKGRFTISQDNAKNPVYLQMDSLKPEDTAMYYCAASDSRCLEYKYWGQGTQVTVSS
B8: Nb 47 (VHH)
VHH: QVQLQESGGGSVQAGGSLRLSCAASGFTYSLYCMGWFRQAPGKEREKVAEMDKSSGDTDYADSVKGRFTISQDNAKNTVYLMMNSLKPEDTAIYYCAATGYRCQGYNAWGQGTQVTVSS
B9: Nb 3 (VHH)
VHH: QVQLQESGGGSVQAGGSLRLSCAAFGFTYSNYCVTWFRQAPGKERERVASIDRSNGDTLYTESVKGRFTISQDNAKNTVSLVMNSLKPEDTAIYYCAATDRYCADWRTWGQGTQVTVSS
B10: Nb 25 (VHH)
VHH: QVQLQESGGGSVQAGGSLRLSCAASGHSFTLDCMGWFRQAPGKERESVAEINMYSGNTYYADSVKGRFTISRDSAKSTVNLQMNSLKPEDTAIYFCAAAPTCARWDYRGQGTQVTVSS
B11: Nb 33 (VHH)
VHH: QVQLQESGGGLVQPGGSLRLSCAASGFTFSSYFMSWVRQAPGKGLEWVSGINSDGSMTYYLDSVKGRFTMSRDNAKNTLYLEMNSLKSEDTALYYCALRGVFSDYALHSQGTQVTVSS
B12: Nb 75 (VHH)
VHH: B11 VHH with G16D, G26E, T28A, S53T, L61S, M70I, E82Q, A97V, H108Q
B13: Nb 92 (VHH)
VHH: QVQLQESGGGSVQAGGSLRLSCAASGYISSTSYVGWFRQAPGKEREKVAEARSGGDYTWYADSVKGRFTISQDNAKNTVYLQMNSLKPEDTAIYYCAAGEFGGPYNNWGQGTQVTVSS
B14: Nb 35 (VHH)
VHH: QVQLQESGGGSVQAGGSLRLSCAASGYSYSSTCMAWFRQVPGKEREGVASINNSGTATYYADSVKGRFTISRDNAKNTLYLLMDNLKPEDTAIYYCAASLRRGQDCLGAIDYWGQGTQVTVSS
B15: monovalent anti-mSIRPα nanobody Nb15, His6-tagged (VHH)
VHH: B1 VHH with E1Q
modifications: 99mTc tricarbonyl at the His6-tag (in the radioligand binding assay only)
B16: anti-mSIRPα nanobody Nb54 as used in SPR and epitope binning (VHH)
VHH: QVQLQESGGGSVQAGGSLRLSCSASGHMYGSVIGWFRQAPGKERVGVAAIYTYAGSEYYADSVKGRFTVSQDTQDNAKNTVYLQMSSLNVEDTAMYYCAVGFPLGRLTTVRTLASNEYKYWGQGTQVTVSS
notes: source: E. coli WK6, periplasmic extraction, purified (IMAC, SEC)
B17: anti-mSIRPα nanobody Nb89 as used in SPR and epitope binning (VHH)
VHH: QVQLQESGGGLVQPGGSLRLSCAASGFAFSRNSMRWVRQAPGKGLEWVSSISSDGKYTYYTDSVKGRFAISRDNANNTLYLQMNSLKSEDTALYYCSTGGAPASQGTQVTVSS
notes: as for B16
B18: monovalent anti-mSIRPα nanobody Nb15, His6-tagged (VHH)
VHH: B1 VHH with E1Q
notes: both carry a C-terminal His6; also called monovalent Nb15; anti-SIRPα Nb15; source: E. coli WK6, periplasmic extraction, purified (IMAC, SEC); not shown: His6, C-terminal, kept
B19: bivalent anti-SIRPα Nb15 (pHEN25 construct, dimerised through a cysteine) (VHH)
VHH: B1 VHH
notes: as the VHH of m7 (Nb15); fourteen amino acid long linker and a cysteine after the His6 tag (pHEN25); The cysteine allows dimerization; The order of His6 tag, linker and cysteine is worded loosely; also called bivalent Nb15; bivalent construct of Nb15; source: E. coli WK6 (pHEN25), periplasmic extraction, purified (IMAC, SEC); not shown: His6, C-terminal, kept
B20: anti-mSIRPα nanobody Nb15, HA- and His6-tagged (pMECS) (VHH)
VHH: B1 VHH with E1Q
notes: An alpaca and two dromedaries were immunised; also called clone 15; source: E. coli WK6, periplasmic extraction, purified (IMAC, SEC)
B21: anti-mSIRPα nanobody Nb54, HA- and His6-tagged (pMECS) (VHH)
VHH: B16 VHH
notes: also called clone 54; source: E. coli WK6, periplasmic extraction, purified (IMAC, SEC)
B22: anti-mSIRPα nanobody Nb89, HA- and His6-tagged (pMECS) (VHH)
VHH: B17 VHH
notes: also called clone 89; source: E. coli WK6, periplasmic extraction, purified (IMAC, SEC)

Positions count from the first letter of the chain named.

One assay has as its target T1, recombinant ligand binding domain of …. The experiment in a line: SPR.
Settings: not given
As for B1, the off-rate constant (koff) worked out at 0.00733 s⁻¹.

The target in another assay is T2, recombinant ligand binding domain of mouse SIRPα (mSIRPα) (Mus musculus, strain  …, UniProt P97797).
T2 sequence (P97797 whole entry, looked up, the tested form may be a part): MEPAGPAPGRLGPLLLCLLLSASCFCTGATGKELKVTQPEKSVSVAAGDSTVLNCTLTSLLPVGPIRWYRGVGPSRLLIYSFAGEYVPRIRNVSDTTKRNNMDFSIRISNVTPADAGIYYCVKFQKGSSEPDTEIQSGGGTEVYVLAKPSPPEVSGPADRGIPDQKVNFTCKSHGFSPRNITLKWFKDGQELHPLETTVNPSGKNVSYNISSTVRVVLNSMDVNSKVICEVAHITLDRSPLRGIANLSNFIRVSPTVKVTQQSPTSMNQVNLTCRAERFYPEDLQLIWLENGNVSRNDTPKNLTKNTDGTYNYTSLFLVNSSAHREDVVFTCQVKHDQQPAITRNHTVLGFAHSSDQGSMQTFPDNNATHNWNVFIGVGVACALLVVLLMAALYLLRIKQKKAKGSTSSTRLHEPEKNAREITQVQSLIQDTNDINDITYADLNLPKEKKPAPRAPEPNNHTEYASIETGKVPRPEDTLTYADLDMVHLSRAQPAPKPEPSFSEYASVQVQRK
Experiment: not given
Settings: not given
For the molecule B2, the binding result was “binds”. On the same count and under the same terms, as for B3, the entry is “binds”; as for B4, “binds”. Consider B5, for which the binding result is given as “binds”. As for B6, the binding result is reported as “binds”. Same read-out and setting: with B7 the entry was “binds”; with B8, “binds”; with B9, “binds”.

On to B10, for which the binding result is reported as “binds”.

On to B11, for which the binding result is listed as “binds”. For B12, the binding result is “binds”.

With B13, the binding result was “binds”.

On to B14, for which the binding result is “binds”.

The target of another assay is T1, recombinant ligand binding domain of …. The experiment in a line: SPR.
Settings: not given
The source holds these as a separate data set.
Regarding B15, the Kd came to 49.4 nM. As for B16, the equilibrium dissociation constant (Kd) is 354 nM. On to B17, for which the dissociation constant Kd was determined as 6.9 nM.

The next assay deals with T2, recombinant ligand binding domain of …. As to the kind of experiment: SPR; Biacore T200; recombinant antigen immobilised by amine coupling on a CM5 chip; nanobodies injected in 2-fold dilutions from 500 to 1.95 nM; 25°C; HBS (20 mM HEPES pH 7.4, 150 mM NaCl, 0.005% Tween-20, 3.4 mM EDTA); 1:1 binding model. The settings on record: both partners purified. In general terms: SPR reads the build-up and loss of mass on a sensor chip optically.
As to B18, the binding result is reported as “binds”.

Take B16: the binding result is reported as “binds”. Take B19: the binding result is “binds”.

As for B17, the binding result is “binds”.

A further assay has as its target T3, mouse SIRPα natively expressed on RAW 264.7 macrophages (Mus musculus, endogenous in RAW 264.7 …, UniProt P97797).
T3 construct: also called native murine SIRPα; cell-membrane mSIRPα; source: endogenous, on RAW 264.7 cells
The experiment in a line: flow cytometry on cells; 1 µg purified nanobody with 2 x 10^5 RAW 264.7 cells, 4°C, 1 h; detected with AF488 anti-HA antibody; threshold triple ΔMFI of the non-targeting BabA Nb19. The note with it: one partner purified. (In general: In flow cytometry, cells or beads pass a laser one at a time.)
For B20, the binding result is “binds”.

For the molecule B21, the binding result was “binds”. For B22, the binding result was “binds”.

A further assay has as its target T3, mouse SIRPα natively expressed on RAW …. As to the kind of experiment: radioligand binding; 99mTc-labeled nanobodies at 2, 20 and 200 nM on adherent RAW 264.7 cells, 1 h, 4°C; aspecific binding with 100x molar excess of unlabeled Nb. The settings on record: one partner purified.
For B18, the binding result was “binds”.

As for B19, the binding result is “binds”.

In another assay the target is T1, recombinant ligand binding domain of …. As to the kind of experiment: SPR.
Settings: not given
This is another data set of the same source.
B15: the Kd stood at 109 nM. As to B1, the dissociation constant Kd was 57.4 nM.

Another assay has the same target. The experiment in a line: SPR.
Settings: not given
This is another data set of the same source.
Consider B15, for which the koff turned out to be 0.00809 s⁻¹. In the case of B16, the koff was 0.221 s⁻¹.

For the molecule B17, the koff was determined as 0.0087 s⁻¹.

For orientation: koff means a measure of how fast the partners let go of each other. The term Kd denotes the free concentration of one partner at which half of the binding sites on the other are occupied at equilibrium, for simple one-to-one binding.

For the origin of these results see article PMC8669144, “Imaging of Glioblastoma Tumor-Associated Myeloid Cells Using Nanobodies Targeting Signal Regulatory Protein Alpha” (Frontiers in Immunology, 2021).
